Values quoted from earlier work, collected in PMC4257090.
Like-named read-outs stand apart in the source and are kept apart here.

How the values were obtained:
[1] = target: SecA (soluble) (Escherichia coli) (UniProt P10408)
[2] = target: SecA (membrane-bound) (Escherichia coli) (UniProt P10408)
[3] = target: SecA (membrane-bound) (Escherichia coli) (UniProt P10408); remark: listed apart in the source

Kd [1]: 1500 nM
Kd [2]: 10 nM
Kd [3]: 30 nM
Substance: SecB (from UniProt P0AG86)
